{
  "source": "paper PMC10204484",
  "target": "anti-DENV antibody with the 3Cam2 variable region and the LALA Fc variant (human)",
  "data": [
    {"substance": "mouse C1q (from UniProt P98086 23-245; P14106 26-253; Q02105 30-246) (complex)", "values": [
      {"measurement": "C3b ELISA (complement activation) on plate-immobilised antibody incubated with AG129 mouse serum; absorbance ratio versus the well without antibody immobilization", "value": 1.5, "unit": "fold"}
    ]}
  ]
}
